Results on 72 sequences are retold here after the supplement of paper PMC10567573.

± gives the standard deviation.

This data set in a line: protein stability index of a GFP-peptide fusion (GPS, HEK-293T) (PSI 1-6); higher = more stable.
The mark [1] stands for this setting: treatment: DMSO, c terminus: a fixed tail appended.
The mark [2] stands for this setting: treatment: MLN4924 1 uM, 8 h, c terminus: a fixed tail appended.
The mark [3] stands for this setting: treatment: DMSO, c terminus: native.
Where [4] appears, read: treatment: MLN4924 1 uM, 8 h, c terminus: native.
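Also: 24-mer peptide tiles fused after GFP, lentivirally expressed, FACS-sorted into six equal bins by GFP/DsRed ratio, decoded by Illumina sequencing, PSI is the read-weighted mean bin number.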

On to RPELPPVCRARPRACSHLIRLMQR [RIPK4], for which the protein stability index by setting is: under setting [1], 2.52 ± 0.26; under setting [2], 2.49 ± 0.31.
Regarding HGRGTEVLLEEPLPLETARESPSF [ZNF263], the protein stability index stood at 4.69 ± 0.28 under setting [1] and 4.81 ± 0.25 under setting [2].
As for RAALTYTSLEITILTSQPGKEVVK [M1AP], the protein stability index reads like this: under setting [1], 2.32 ± 0.19; under setting [2], 2.49 ± 0.34.
As for REWRCCPGHSGVSCEEVAASSASL [EMID1], the protein stability index worked out at 3.74 ± 0.089 under setting [1] and 3.55 ± 0.31 under setting [2].
In the same order, the values of IRHNLSLNKCFIKVPREKDEPGKG [FOXJ1] are 3.78 ± 0.3 and 3.9 ± 0.2.
For NVNSNLITWNRVVLLHGPPGTGKT [TRIP13], the protein stability index reads like this: under setting [1], 2.45 ± 0.21; under setting [2], 2.53 ± 0.14.
In the same order, the values of ANGSEIHKHVHFSSSFTSIASEWF [SLC22A15] are 2.44 ± 0.32 and 2.39 ± 0.36.
In turn, RTVNALEIELQAQHNLRYSLENTL [KRT33B] displayed a protein stability index under setting [1] of 2.31 ± 0.25 and a protein stability index under setting [2] of 2.29 ± 0.22.
In the same order, the values of ARLTYSIVGNQVQGAPASSFVYVN [PCDHGC5] are 2.38 ± 0.39 and 2.19 ± 0.26.
For the sequence LEQASSHIGNSTQATVRDAVVGRP [ATL3], the protein stability index stood at 5.03 ± 0.26 under setting [1] and 5.03 ± 0.35 under setting [2].
In the same order, the values of QQFQPAGTDQVCVLEWGAEGVAGK [FCHSD1] are 4.46 ± 0.24 and 4.64 ± 0.23.
The like results for EALVNRLWKRMDKLEAEKRILQEK [CCDC6] were, in that order, 2.93 ± 0.08 and 3.6 ± 0.24.
In the case of DKKKELQELNELFKPVVAAQKISK [ZC3H15], the protein stability index reads like this: under setting [1], 4.39 ± 0.32; under setting [2], 4.43 ± 0.17.
In the same order, the values of VVNSHSLSLLGKLTISAAFNIVYI [SLC22A15] are 3.07 ± 0.43 and 3.09 ± 0.64.
In the case of GGDYGLVTAGCGFGKDFRKGLLKK [PPTC7], the protein stability index is, setting by setting: under setting [1], 3.22 ± 0.36; under setting [2], 3.6 ± 0.48.
The like results for ASIHWDWKIALLFVAFALCMFCLY [SLC35F2] were, in that order, 2.17 ± 0.36 and 2.26 ± 0.24.
Regarding LRVSPAEQPRLEFLMRKCGWFVRE [FBXO33], the protein stability index under setting [1] was found to be 1.97 ± 0.12 and the protein stability index under setting [2] is 2.08 ± 0.38.
On to EVGPQEINKEELEGNSMRCGRKLA [GMCL1], for which the protein stability index is 4.75 ± 0.48 under setting [1] and 4.76 ± 0.3 under setting [2].
In the same order, the values of SEKAANDDHSVRVAREDVRESCPP [CPXM2] are 5.49 ± 0.22 and 5.44 ± 0.061.
In the same order, the values of RDRDGRITVAELREAVPALLGEPL [CABP4] are 3.78 ± 0.23 and 3.95 ± 0.35.
On to DHGVPEHPTPFLAFLRRVKTCNPP [PTPRD], for which the protein stability index runs as follows: under setting [1], 3.16 ± 0.042; under setting [2], 3.16 ± 0.25.
The like results for CVNGDVDKPSEPASEEGSESEGSE [SMG5] were, in that order, 5.58 ± 0.23 and 5.51 ± 0.14.
With QCAVLIYTSGTTGIPKGVMLSHDN [ACSBG2], the protein stability index under setting [1] amounted to 2.65 ± 0.51 and the protein stability index under setting [2] worked out at 2.58 ± 0.72.
In the same order, the values of QNQHHSASLQASIFSGAASLGYGT [APBB1IP] are 3.19 ± 0.16 and 3.15 ± 0.17.
In the same order, the values of MLIFSLALEEPEKMGLQERSETFL [DNAAF3] are 2.18 ± 0.32 and 2.38 ± 0.12.
In the same order, the values of INNGDFEAYTKICDPGLTAFEPEA [CAMK2D] are 4.08 ± 0.41 and 4.36 ± 0.18.
Take FRVVDCDQFTQVFLESQGIELNPP [EFHC1]: the protein stability index reads like this: under setting [1], 2.01 ± 0.14; under setting [2], 2.27 ± 0.17.
In the same order, the values of FQARLSGNNLHNASIPEHLAYGSV [POMT2] are 2.63 ± 0.21 and 2.95 ± 0.29.
For EGHCVIQVDVGDVNDNAPEVLLAS [PCDHGC5], the protein stability index came out at 3.86 ± 0.35 under setting [1] and 3.96 ± 0.27 under setting [2].
For QVKLYDIEQQQIRNALENIRKEMK [CRYL1], the protein stability index came to 3.14 ± 0.65 under setting [1] and 3.47 ± 0.29 under setting [2].
Take ADWWQEPDAKGDEAEAEPEPELA [P3H4]: the protein stability index reads like this: under setting [3], 5.67 ± 0.21; under setting [4], 5.42 ± 0.31.
In the case of NGPDCGYGSFHQQYWLDGKIIAVG [ATE1], the protein stability index was 2.35 ± 0.42 under setting [1] and 2.26 ± 0.26 under setting [2].
Turning to VQVENPERFSSAPCLLGSRVFSQG [TRIM35], the protein stability index is 3.09 ± 0.24 under setting [1] and 3.2 ± 0.22 under setting [2].
As to RKDFSELRSAGVEQLMYIKEDLII [FAM50A], the protein stability index under setting [1] was determined as 2.24 ± 0.21 and the protein stability index under setting [2] is 2.13 ± 0.34.
The like results for HRQETVDCLKKFNARRKLKGAILT [CAMK2D] were, in that order, 2.69 ± 0.52 and 2.71 ± 0.22.
Consider LQRLKEQQFVIAGVLVEDSNNHHL [ZBED1], for which the protein stability index is, setting by setting: under setting [1], 2.83 ± 0.085; under setting [2], 3.02 ± 0.27.
Consider YISRKYFATRPGAIETAMEDLKGH [TPRG1], for which the protein stability index worked out at 2.73 ± 0.41 under setting [1] and 2.81 ± 0.43 under setting [2].
In the same order, the values of CSRTTGYQILTLEKDQEQVVMNLD [GMCL1] are 3.6 ± 0.52 and 3.43 ± 0.34.
The like results for AGAGGSGSRISVSRSTSFRGGMGS [KRT18] were, in that order, 3.88 ± 0.21 and 3.79 ± 0.28.
In the same order, the values of HSEKMAQYLEEERHMREENLRLQR [CCDC6] are 4.91 ± 0.07 and 4.56 ± 0.25.
GIRLPNGKLKCDICGIICIGPNVL [IKZF1]: the protein stability index reads like this: under setting [1], 2.61 ± 0.48; under setting [2], 2.46 ± 1.
For SSFFQQFFHCYCPVGFGRRTDPNG [CRY1], the protein stability index turned out to be 2.42 ± 0.52 under setting [1] and 2.11 ± 0.27 under setting [2].
The like results for DVLNDAIFDEDHDEMVIVKDIDMF [GCH1] were, in that order, 3.5 ± 0.15 and 3.62 ± 0.2.
For SPCLPEAEAMFAINADGVGDAKD [RAD51], the protein stability index runs as follows: under setting [3], 5.38 ± 0.16; under setting [4], 5.34 ± 0.14.
With LFEGMIWFLVPISSVICNDITAYL [CDS1], the protein stability index reads like this: under setting [1], 3.91 ± 0.42; under setting [2], 3.38 ± 0.86.
In the same order, the values of LAEIRSDLERQNQEYQVLLDVRAR [KRT33B] are 3.84 ± 0.25 and 4.02 ± 0.32.
As for VVTRVVTGVYPRCLHASQWPVCAA [BRF1], the protein stability index runs as follows: under setting [1], 2.54 ± 0.51; under setting [2], 2.75 ± 0.23.
In the same order, the values of TPSARRNYRIAGARLMRSNYPPPL [C6orf223] are 2.92 ± 0.14 and 3.08 ± 0.22.
Consider AGLCMDSPSPMDPHMAEQTFEQAI [CDC25B], for which the protein stability index by setting is: under setting [1], 4.5 ± 0.47; under setting [2], 4.6 ± 0.15.
In the same order, the values of LSEEEKEELKAELVQLEDEITTLR [TPD52L1] are 5.03 ± 0.17 and 5.2 ± 0.19.
As for KIMADIRAQYDELARKNREELDKY [KRT18], the protein stability index by setting is: under setting [1], 3.07 ± 0.15; under setting [2], 3.19 ± 0.35.
HAPGVPKILVGNRLHLAFKRQVPR [RAB40A]: the protein stability index is, setting by setting: under setting [1], 2.58 ± 0.28; under setting [2], 2.88 ± 0.31.
In the same order, the values of VEASCSVCLEYLKEPVIIECGHNF [TRIM39] are 2.07 ± 0.39 and 2.25 ± 0.21.
Consider EEAAFPGRRVNAKMPVYSGSRPAC [ELOA2], for which the protein stability index under setting [1] came out at 4.01 ± 0.093 and the protein stability index under setting [2] was 3.98 ± 0.27.
The like results for SGSGKSGGYGFGRGRASGFAGSMF [KRT71] were, in that order, 2.8 ± 0.24 and 2.69 ± 0.41.
As to YPRYPDIHDLDLTLLNPRMIVDVT [CLCN6], the protein stability index turned out to be 2.48 ± 0.14 under setting [1] and 2.54 ± 0.22 under setting [2].
Consider KAEELDRRERELQHAALGGTATRQ [SCAMP3], for which the protein stability index runs as follows: under setting [1], 5.15 ± 0.12; under setting [2], 5.21 ± 0.22.
Regarding PYIQLPSHSNITGIVEVILGETKA [TRIB1], the protein stability index stood at 2.63 ± 0.48 under setting [1] and 2.67 ± 0.52 under setting [2].
In the same order, the values of TSANKITLVSSGSGTMGAAKVTGE [FLOT1] are 4.63 ± 0.12 and 4.69 ± 0.26.
The like results for ELQRQKEAEKLERQLALPATEQAA [NOP53] were, in that order, 5.14 ± 0.34 and 5.42 ± 0.31.
Turning to PEPVYFHCAAVTPAGCMYIHGGVV [KLHDC10], the protein stability index came to 2.53 ± 0.56 under setting [1] and 2.85 ± 0.71 under setting [2].
KESAQCVGDEFLNCKLATRAKDFL [SNX8] showed a protein stability index under setting [1] of 3.32 ± 0.2 and a protein stability index under setting [2] of 3.21 ± 0.36.
For DYLCISFEYSTIKCRDLSALMHEL [BTBD10], the protein stability index was 2.5 ± 1.6 under setting [1] and 2.73 ± 1 under setting [2].
Turning to SPEWDTVTPEAKNLINQMLTINPA [CAMK2B], the protein stability index is, setting by setting: under setting [1], 3.84 ± 0.18; under setting [2], 3.86 ± 0.21.
The like results for LGVCASGLLIYRDRLRINRFAWPK [EPB41L3] were, in that order, 2.06 ± 0.046 and 2.4 ± 0.26.
In the same order, the values of FIAVTSYQNHKITQLKIENNPFAK [TBX5] are 2.12 ± 0.28 and 2.27 ± 0.53.
The like results for AVAVDVAVPKRLLEIVGREGVSLT [HAGHL] were, in that order, 2.84 ± 0.23 and 2.84 ± 0.19.
VTPAQNNLLQPNFEAAFGTTPSTS [SNAP91]: the protein stability index was 4.52 ± 0.13 under setting [1] and 4.62 ± 0.14 under setting [2].
QALMLPPGSFWGLCQVAQEALASA [VENTX]: the protein stability index is, setting by setting: under setting [1], 2.04 ± 0.25; under setting [2], 2.18 ± 0.42.
The like results for SYQKPKEVVVAESELQKELKKVKT [DPCD] were, in that order, 4.95 ± 0.36 and 5.25 ± 0.31.
The like results for IHPKNPHAPTIHFNYRYFEVEEAD [CPOX] were, in that order, 3.75 ± 0.18 and 3.88 ± 0.17.
In the case of YLSQTDGAGDWREKEAKDLTELVQ [FUT8], the protein stability index was 4.52 ± 0.27 under setting [1] and 4.7 ± 0.29 under setting [2].
